In publication PMC2174084 (The Journal of Cell Biology, 2002):
Where a chain is given by its changes, count along the chain named. Numbers in names are those of the source. No end group written: not given here.

B1: Kelch repeat 5 (L594-L640) (domain or fragment)
chain: LYAVGGHDGPMVRRSVEAYDCETNSWRSVADMSYCRRNAGVVAHDGL
modifications: cysteine pairing not given here; also: biotin-labeled, place not given here
B2: Kelch repeat 5 (L594-[Y627A]-L640) (domain or fragment)
chain: B1 chain with Y34A
modifications: cysteine pairing not given here; also: biotin-labeled, place not given here
B3: Kelch repeat 5 (L594-[Y627D]-L640) (domain or fragment)
chain: B1 chain with Y34D
modifications: cysteine pairing not given here; also: biotin-labeled, place not given here
B4: Kelch repeat 5 (L594-[Y627F]-L640) (domain or fragment)
chain: B1 chain with Y34F
modifications: cysteine pairing not given here; also: biotin-labeled, place not given here

Target: rabbit skeletal muscle actin, polymerized (F-actin) (rabbit, UniProt P68135 1-377)
Test: co-sedimentation

Binder	binding result	percent of the protein sedimenting with actin [%]
B1	binds	
B2		100
B3		< 50
B4		100
